Changes are numbered by the printed parent chain. Names may count otherwise. “And” between values parts separate entries of the source, which are not always exact repeats. Equal values may be shown once.
T1: Heat shock factor 1 (HSF1), endogenous in MDA-MB-231 cells (human (endogenous in MDA-MB-231)), Q00613
T1 chain: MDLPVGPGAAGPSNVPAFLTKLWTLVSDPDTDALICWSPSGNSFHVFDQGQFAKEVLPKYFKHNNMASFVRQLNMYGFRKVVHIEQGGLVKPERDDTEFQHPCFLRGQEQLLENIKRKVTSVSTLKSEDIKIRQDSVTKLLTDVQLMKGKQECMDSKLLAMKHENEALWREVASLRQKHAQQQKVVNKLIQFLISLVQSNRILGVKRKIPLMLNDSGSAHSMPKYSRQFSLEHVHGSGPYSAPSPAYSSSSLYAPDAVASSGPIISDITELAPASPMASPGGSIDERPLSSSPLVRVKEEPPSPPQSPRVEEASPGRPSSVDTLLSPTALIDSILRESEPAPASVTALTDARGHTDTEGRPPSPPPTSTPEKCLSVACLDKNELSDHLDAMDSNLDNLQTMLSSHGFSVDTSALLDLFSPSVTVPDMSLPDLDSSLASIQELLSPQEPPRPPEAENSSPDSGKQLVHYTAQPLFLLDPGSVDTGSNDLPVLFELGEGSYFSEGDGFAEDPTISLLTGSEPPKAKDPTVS

B1: Heat shock factor 1 (HSF1), endogenous in MDA-MB-231 cells, Q00613 1-529 (natural protein)
chain: T1 chain
B2: Recombinant hexahistidine-tagged mutant S326A HSF1 (natural protein, human, UniProt Q00613 1-529, looked up)
chain: T1 chain with S326A, P448L
notes: Heat shock factor 1, human, full-length cDNA from Addgene plasmid 32537 (P to L at position 448) in pet15b, with S326A made by site-directed mutagenesis; Made from the pet15b plasmid of m3; also called S326A mutant HSF1; HSF1 S326A; source: E. coli BL21(DE3)pLysS, purified (nickel agarose resin, dialysis)
B3: Recombinant hexahistidine-tagged HSF1 wild-type (natural protein, human, UniProt Q00613 1-529, looked up)
chain: T1 chain with P448L
notes: subcloned into pet15b (NdeI, XhoI); The vector pet15b is named; also called His-HSF1; HSF1 WT; source: E. coli BL21(DE3)pLysS, purified (nickel agarose resin, dialysis)

Key:
[1] = target: T1, Heat shock factor 1 (HSF1), endogenous …; experiment: cross-linking; MDA-MB-231 cells treated with 20 uM PEITC for 3 h, fixed with 0.4% (wt/vol) paraformaldehyde in PBS, quenched with glycine; nuclear and cytoplasmic fractions; SDS-PAGE (10% gel), blot with anti-HSF1; settings: remark: other sources report otherwise
[2] = target: the molecule itself; experiment: gel electrophoresis (NuPAGE NoVex Bis-Tris 10% gel); purified recombinant hexahistidine-tagged HSF1 (WT and S326A) run on NuPAGE; dimeric and trimeric species formed spontaneously beside the major band

Row | Binder | stoichiometry N [1] | stoichiometry N [2]
1 | B1 | 2 and 3 | 
2 | B2 |  | 2 and 3
3 | B3 |  | 2 and 3
